Article PMC10404681, “Intrinsic catalytic properties of histone H3 lysine-9 methyltransferases preserve monomethylation levels under low S-adenosylmethionine” (The Journal of Biological Chemistry, 2023)

Tests used:
[1] = substrate: C[S+](CC[C@H](N)C(=O)[O-])C[C@H]1O[C@@H](n2cnc3c(N)ncnc32)[C@H](O)[C@@H]1O; test: Radiometric EZ-tip methyltransferase assay, steady-state kinetics, EHMT2; format: biochemical, H. sapiens; details: other: SAM varied 0.1–100 μM, EHMT2 25 nM, pH 7.9, 30 °C, 20 min, n = 3, SD
Text: (§1) HMT amino acids included in expression plasmids are as follows: EHMT1 = 982 to 1266; EHMT2 = 913 to 1193; SUV39H1 = full length with N-terminal maltose-binding protein; SUV39H2 = 162 to 410.
(§2) Michaelis-Menten saturation curves were generated under steady-state conditions with the non-titrated component concentration being present at ≥5× KM specific to each enzyme. 1 × 10^5 CPM values were provided by [methyl-^3H] SAM in each reaction. Reaction times and enzyme concentrations were optimized for each HMT to ensure substrate turnover remained below 20%. 50 μM H3 peptide was combined with varying SAM concentrations up to 100 μM and either EHMT1 (25 nM), EHMT2 (25 nM), SUV39H1 (100 nM), or SUV39H2 (25 nM) in histone methyltransferase (HMT) activity buffer (50 mM HEPES pH 7.9, 0.5 mM DTT, 0.1 mM AEBSF, 2 mM MgCl2, 0.01% v/v Triton X-100) with a final volume of 20 μl. Enzyme concentrations are calculated for the monomeric form. Reactions were incubated at 30 °C for 20 min before quenching with TFA for a final concentration of 2% v/v TFA. Then, the reactions were cleaned using StageTips (i.e., two Attract SPE disks (Affinisep) in a pipette tip) with 200 μl acidified water (0.5% v/v formic acid) and eluted with 100 μl elution buffer (80% v/v acetonitrile, 0.5% v/v formic acid). The eluates were added to 2 ml of Ultima Gold LSC Cocktail (Sigma-Aldrich) and counted on a scintillation counter (PerkinElmer). All CPM values were corrected for decreased StageTip capacity when peptide concentrations exceeded 10 μM.
(§3) CPM values were converted to rates of product formation (μM/min) and used to generate Michaelis-Menten kinetic constants via GraphPad Prism v9.5.0 via the following equation: Y = Et∗kcat∗X/(KM + X). Variable definitions are as follows: Y = rate of product formation/enzyme velocity; X = substrate concentration; Et = concentration of enzyme in reaction.

[2] = substrate: C[S+](CC[C@H](N)C(=O)[O-])C[C@H]1O[C@@H](n2cnc3c(N)ncnc32)[C@H](O)[C@@H]1O; test: Radiometric EZ-tip methyltransferase assay, steady-state kinetics, EHMT1; format: biochemical, H. sapiens; details: other: SAM varied 0.1–100 μM, EHMT1 25 nM, pH 7.9, 30 °C, 20 min, n = 3, SD
Text: as §1, §2, §3

[3] = substrate: C[S+](CC[C@H](N)C(=O)[O-])C[C@H]1O[C@@H](n2cnc3c(N)ncnc32)[C@H](O)[C@@H]1O; test: Radiometric EZ-tip methyltransferase assay, steady-state kinetics, SUV39H1; format: biochemical; details: other: SAM varied 0.1–100 μM, SUV39H1 100 nM, pH 7.9, 30 °C, 20 min, n = 3, SD
Text: as §1, §2, §3

[4] = substrate: C[S+](CC[C@H](N)C(=O)[O-])C[C@H]1O[C@@H](n2cnc3c(N)ncnc32)[C@H](O)[C@@H]1O; test: Radiometric EZ-tip methyltransferase assay, steady-state kinetics, SUV39H2; format: biochemical, H. sapiens; details: other: SAM varied 0.1–100 μM, SUV39H2 25 nM, pH 7.9, 30 °C, 20 min, n = 3, SD
Text: as §1, §2, §3

[5] = fixed H3K9me1 peptide H3(1–17) 50 μM
[6] = fixed H3K9me2 peptide H3(1–17) 50 μM
[7] = fixed H3K9un peptide H3(1–17) 50 μM

B1: EHMT2 catalytic domain (Homo sapiens) (protein)
chain: NRAIRTEKIICRDVARGYENVPIPCVNGVDGEPCPEDYKYISENCETSTMNIDRNITHLQHCTCVDDCSSSNCLCGQLSIRCWYDKDGRLLQEFNKIEPPLIFECNQACSCWRNCKNRVVQSGIKVRLQLYRTAKMGWGVRALQTIPQGTFICEYVGELISDAEADVREDDSYLFDLDNKDGEVYCIDARYYGNISRFINHLCDPNIIPVRVFMLHQDLRFPRIAFFSSRDIRTGEELGFDYGDRFWDIKSKYFTCQCGSEKCKHSAEAIALEQSRLARLD
notes: EHMT2 = 913 to 1193; made in house; host or cells: Rosetta E. coli (plasmid from the laboratory of Peter W. Lewis)
[1]; [5]
  Km: 16.80 ± 2.69 µM
  kcat: 0.0358 ± 0.00383 s⁻¹
  kcat/Km: 2170 ± 167 M⁻¹ s⁻¹
[1]; [6]
  Km: 6.10 ± 1.0 µM
  kcat: 0.0175 ± 0.00117 s⁻¹
  kcat/Km: 2830 ± 500 M⁻¹ s⁻¹
[1]; [7]
  Km: 19.21 ± 2.00 µM
  kcat: 0.127 ± 0.00183 s⁻¹
  kcat/Km: 6670 ± 667 M⁻¹ s⁻¹

B2: EHMT1 catalytic domain (Homo sapiens) (protein)
chain: NSQVWSALQMSKALQDSAPDRPSPVERIVSRDIARGYERIPIPCVNAVDSEPCPSNYKYVSQNCVTSPMNIDRNITHLQYCVCIDDCSSSNCMCGQLSMRCWYDKDGRLLPEFNMAEPPLIFECNHACSCWRNCRNRVVQNGLRARLQLYRTRDMGWGVRSLQDIPPGTFVCEYVGELISDSEADVREEDSYLFDLDNKDGEVYCIDARFYGNVSRFINHHCEPNLVPVRVFMAHQDLRFPRIAFFSTRLIEAGEQLGFDYGERFWDIKGKLFSCRCGSPKCRHS
notes: EHMT1 = 982 to 1266; host or cells: Rosetta E. coli
[2]; [5]
  Km: 6.84 ± 1.81 µM
  kcat: 0.0335 ± 0.0025 s⁻¹
  kcat/Km: 5000 ± 833 M⁻¹ s⁻¹
[2]; [6]
  Km: 2.21 ± 0.65 µM
  kcat: 0.0112 ± 0.000333 s⁻¹
  kcat/Km: 5330 ± 1330 M⁻¹ s⁻¹
[2]; [7]
  Km: 13.51 ± 4.95 µM
  kcat: 0.211 ± 0.0108 s⁻¹
  kcat/Km: 16800 ± 4500 M⁻¹ s⁻¹

B3: SUV39H1 (Homo sapiens) (protein)
chain: MAENLKGCSVCCKSSWNQLQDLCRLAKLSCPALGISKRNLYDFEVEYLCDYKKIREQEYYLVKWRGYPDSESTWEPRQNLKCVRILKQFHKDLERELLRRHHRSKTPRHLDPSLANYLVQKAKQRRALRRWEQELNAKRSHLGRITVENEVDLDGPPRAFVYINEYRVGEGITLNQVAVGCECQDCLWAPTGGCCPGASLHKFAYNDQGQVRLRAGLPIYECNSRCRCGYDCPNRVVQKGIRYDLCIFRTDDGRGWGVRTLEKIRKNSFVMEYVGEIITSEEAERRGQIYDRQGATYLFDLDYVEDVYTVDAAYYGNISHFVNHSCDPNLQVYNVFIDNLDERLPRIAFFATRTIRAGEELTFDYNMQVDPVDMESTRMDSNFGLAGLPGSPKKRVRIECKCGTESCRKYLF
notes: made in house; host or cells: Rosetta E. coli (plasmid generated for this study)
[3]; [5]
  Km: 11.78 ± 3.85 µM
  kcat: 0.005 ± 0.000833 s⁻¹
  kcat/Km: 500 ± 167 M⁻¹ s⁻¹
[3]; [6]
  Km: 3.60 ± 1.72 µM
  kcat: 0.0005 ± 0.000167 s⁻¹
  kcat/Km: 167 ± 50 M⁻¹ s⁻¹
[3]; [7]
  Km: 4.52 ± 0.49 µM
  kcat: 0.00717 ± 0.000667 s⁻¹
  kcat/Km: 1670 ± 333 M⁻¹ s⁻¹

B4: SUV39H2 catalytic domain (Homo sapiens) (protein)
chain: LEGPPSDFYYINEYKPAPGISLVNEATFGCSCTDCFFQKCCPAEAGVLLAYNKNQQIKIPPGTPIYECNSRCQCGPDCPNRIVQKGTQYSLCIFRTSNGRGWGVKTLVKIKRMSFVMEYVGEVITSEEAERRGQFYDNKGITYLFDLDYESDEFTVDAARYGNVSHFVNHSCDPNLQVFNVFIDNLDTRLPRIALFSTRTINAGEELTFDYQMKGSGDISSDSIDHSPAKKRVRTVCKCGAVTCRGYLN
notes: host or cells: Rosetta E. coli
[4]; [5]
  Km: 9.85 ± 1.21 µM
  kcat: 0.059 ± 0.00383 s⁻¹
  kcat/Km: 6000 ± 500 M⁻¹ s⁻¹
[4]; [6]
  Km: 8.18 ± 3.14 µM
  kcat: 0.0703 ± 0.00583 s⁻¹
  kcat/Km: 9170 ± 2500 M⁻¹ s⁻¹
[4]; [7]
  Km: 4.70 ± 0.69 µM
  kcat: 0.0668 ± 0.00567 s⁻¹
  kcat/Km: 14300 ± 1330 M⁻¹ s⁻¹
